Assay results reported in patent US20110112172.

Experiments:
[1] = target: human SDF-1 alpha (CXCL12) (Homo sapiens) (UniProt P48061); assay: SPR; conditions: L-RNA, 37 C
[2] = target: biotinylated human D-SDF-1 (mirror-image CXCL12) (Homo sapiens) (UniProt P48061); assay: pulldown; conditions: 37 C
Sequence of biotinylated human D-SDF-1 (mirror-image CXCL12) (Homo sapiens) (P48061 22-92): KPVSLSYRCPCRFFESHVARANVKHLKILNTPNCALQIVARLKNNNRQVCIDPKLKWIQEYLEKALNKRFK

Sequence of human SDF-1 alpha (CXCL12) (Homo sapiens) (P48061 22-89): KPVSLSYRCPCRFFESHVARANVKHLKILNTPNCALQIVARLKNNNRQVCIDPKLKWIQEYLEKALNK

Sequence: AGCGUGGCGAGGUUAGGGCUAGAAGUCGGUCGACACGCU [191-D5-001 Spiegelmer]
- Kd ([1]; FIG. 21 cited here is labelled 191-D5-007): 0.8 nM

Sequence: AGCGUGGUGUGAUCUAGAUGUAUUGGCUGAUCCUAGUCAGGUACGCU [193-G2-001 Spiegelmer]
- Kd [1]: 0.5 nM

Sequence: AGCGUGGUGUGAUCUAGAUGUAUUGGCUGAUCCUAGUCAGGUACGCU [193-G2-001 aptamer (D)]
- Kd ([2]; better than 192-A10-001 in competition): 0.3 nM

Sequence: CGGGAGGUUAGGGCUAGAAGUCGGUCCCG [191-D5-007 Spiegelmer]
- Kd [1]: 0.8 nM

Sequence: CGGGAGGUUAGGGCUAGAAGUCGGUCCCG [191-D5-007 aptamer (D)]
- Kd ([2]; somewhat better than 191-D5-001 in competition): 2.2 nM

Sequence: GAGAUAGGGGUUAGGGCUUAAAGUCGGCUGAUUCUC [190-A3-004 Spiegelmer]
- Kd [1]: 4.7 nM

Sequence: GAGAUAGGGGUUAGGGCUUAAAGUCGGCUGAUUCUC [190-A3-004 aptamer (D)]
- Kd ([2]; same affinity as 190-A3-001): 4.6 nM

Sequence: GCGUGGUGUGAUCUAGAUGUAUUGGCUGAUCCUAGUCAGGUACGC [193-G2-012 aptamer (D)]
- Kd [2]: 0.3 nM

Sequence: GCUGUGAAAGCAACAUGUCAAUGAAAGGUAGCCGCAGC [192-A10-001 Spiegelmer]
- Kd ([1]; 1 mM Mg, 1 mM Ca): 1 nM

Sequence: GCUGUGAAAGCAACAUGUCAAUGAAAGGUAGCCGCAGC [192-A10-001 aptamer (D)]
- Kd ([2]; 1 mM Mg, 1 mM Ca, pH 7.4): 1.5 nM

Sequence: GUGCUGCGGGGGUUAGGGCUAGAAGUCGGCCUGCAGCAC [197-B2 Spiegelmer]
- Kd [1]: 0.9 nM
